Here are results for four molecules from patent US20240392037A1 (UNIVERSITY OF PITTSBURGH OF THE COMMONWEALTH SYSTEM OF …, published 2024).

Test [1] concerns the target T1, human neutrophil elastase (NE) polypeptide (human, UniProt P08246 28-267, limits assumed).
T1 construct: also called hNE; rhNE
T1 sequence: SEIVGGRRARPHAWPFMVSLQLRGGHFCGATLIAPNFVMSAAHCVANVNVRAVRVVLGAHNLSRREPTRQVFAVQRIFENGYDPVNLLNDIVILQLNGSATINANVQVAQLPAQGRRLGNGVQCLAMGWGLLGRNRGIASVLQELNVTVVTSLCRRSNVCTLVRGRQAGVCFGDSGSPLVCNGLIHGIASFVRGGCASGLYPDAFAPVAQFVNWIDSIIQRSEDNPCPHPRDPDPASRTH
Put plainly: ELISA, NE coated at 50 ng/well, anti-FLAG-HRP detection. The procedure:
(§1) The NE polypeptide was coated in 96-well microplates at 50 ng/well in PBS at 4° C. over-night and blocked with 5% milk in PBS for 2 hours at room temperature. For the soluble Fab/VH binding assay, the 3-fold serially diluted Fab/VH were added and incubated for 1 hour at 37° C. and further incubated with anti-FLAG M2-peroxidase (HRP) antibody (A8592, Sigma-Aldrich) for another 1 hour. For the IgG₁ binding assay, HRP conjugated goat anti-human IgG₁ Fc (Sigma-Aldrich) was used for detection. Finally, the reaction was developed by 3,3′,5,5′-tetramethylbenzidine (TMB, Sigma-Aldrich) and stopped by TMB stop buffer (ScyTek laboratories). Absorbance was recorded at 450 nm. The experiment was performed in duplicate.
(An ELISA detects its analyte on a solid surface through an enzyme-linked reagent.)

Test [2] addresses T1, human neutrophil elastase (NE) …. The description is as above. On the procedure: (§2) FIG. 12. Specificity of VH/VH-Fc and Fab/IgG1 with recombinant human NE. (A and B) Binding of Fab 1C10 (A) and VH 1D1.43 (B) to rhNE, rhMPO, and PR3 measured by ELISA. (C and D) Binding of IgG1 1C10 (C) and VH-Fc 1D1.43 (D) to rhNE, rhMPO, BSA, and PR3 measured by ELISA. rhNE, rhMPO, BSA, and PR3 were coated in 96-well microplates at 50 ng/well. Experiments were performed in duplicate. Values were reported as the mean±SD.
as §1
This is another data set of the same source.

Test [3] deals with T2, recombinant human myeloperoxidase protein (human, UniProt P05164 49-745, limits assumed).
T2 construct: Specificity control, coated at 50 ng/well in ELISA; also called rhMPO
T2 sequence (looked up): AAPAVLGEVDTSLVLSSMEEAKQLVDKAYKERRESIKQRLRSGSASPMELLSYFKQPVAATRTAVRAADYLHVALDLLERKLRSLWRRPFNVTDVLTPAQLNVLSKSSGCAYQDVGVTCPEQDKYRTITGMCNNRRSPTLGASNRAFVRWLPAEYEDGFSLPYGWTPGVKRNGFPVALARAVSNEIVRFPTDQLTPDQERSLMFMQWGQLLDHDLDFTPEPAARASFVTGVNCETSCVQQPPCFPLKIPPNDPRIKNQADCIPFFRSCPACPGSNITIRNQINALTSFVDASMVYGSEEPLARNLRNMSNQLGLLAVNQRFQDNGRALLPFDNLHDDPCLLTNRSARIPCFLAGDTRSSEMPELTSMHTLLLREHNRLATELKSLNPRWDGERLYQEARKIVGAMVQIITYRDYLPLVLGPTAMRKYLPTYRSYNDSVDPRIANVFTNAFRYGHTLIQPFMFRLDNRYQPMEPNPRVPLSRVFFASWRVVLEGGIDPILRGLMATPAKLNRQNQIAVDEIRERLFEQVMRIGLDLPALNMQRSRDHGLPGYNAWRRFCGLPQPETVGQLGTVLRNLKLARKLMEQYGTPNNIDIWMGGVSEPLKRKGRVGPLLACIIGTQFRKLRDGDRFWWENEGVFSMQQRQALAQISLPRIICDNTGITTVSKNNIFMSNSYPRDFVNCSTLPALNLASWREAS
Description: ELISA, rhMPO coated at 50 ng/well, anti-FLAG-HRP detection. On the procedure:
as §2, §1

Test [4] deals with T1, human neutrophil elastase (NE) …. Put plainly: BLItz biolayer interferometry, NE-Biotin on streptavidin biosensor. The procedure:
The affinity and avidity of anti-hNE binders were detected by biolayer interferometry BLItz (ForteBio, Menlo Park, CA). Briefly, Dulbecco's PBS (DPBS) was used to establish baseline for 30 seconds, and streptavidin biosensor (ForteBio) was coated with 16.7 μg/mL recombinant NE-Biotin for 2 minutes. […] Antigen coated biosensors with PBS served as reference controls. The dissociation was monitored in DPBS for 4 minutes.

For test [5], the target named is T3, Proteinase 3 (UniProt P24158 28-248, limits assumed).
T3 construct: Specificity control, coated at 50 ng/well in ELISA; also called PR3
T3 sequence (looked up): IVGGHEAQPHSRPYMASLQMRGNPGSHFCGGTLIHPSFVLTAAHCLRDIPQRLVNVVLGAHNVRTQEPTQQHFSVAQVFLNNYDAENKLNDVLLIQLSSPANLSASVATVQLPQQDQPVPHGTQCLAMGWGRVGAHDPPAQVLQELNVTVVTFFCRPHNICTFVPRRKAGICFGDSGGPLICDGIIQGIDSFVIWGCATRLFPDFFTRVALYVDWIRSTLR
Description: ELISA, PR3 coated at 50 ng/well, anti-FLAG-HRP detection. The procedure: as §2, §1

In test [6] the target is T1, human neutrophil elastase (NE) …. Description: cell-based or functional assay.
In test [7] the target is T3, Proteinase 3. Put plainly: ELISA, PR3 coated at 50 ng/well, HRP anti-human IgG1 Fc detection.
Test [8] deals with T4, BSA (UniProt P02769 25-607). Put plainly: ELISA, BSA coated at 50 ng/well, HRP anti-human IgG1 Fc detection. On the procedure:
as §2, §1

Test [9] concerns the target T1, human neutrophil elastase (NE) …. Description: ELISA, NE coated at 50 ng/well, anti-human IgG1 Fc-HRP detection. On the procedure: as §1
The target of test [10] is T2, recombinant human myeloperoxidase …. Description: ELISA, rhMPO coated at 50 ng/well, HRP anti-human IgG1 Fc detection.
Test [11] addresses T1, human neutrophil elastase (NE) …. Put plainly: ELISA, NE coated at 50 ng/well. The procedure: as §2, §1
Test [12] concerns the target T3, Proteinase 3. Put plainly: ELISA, PR3 coated at 50 ng/well. The procedure:
as §2, §1

The target in test [13] is T2, recombinant human myeloperoxidase …. Description: ELISA, rhMPO coated at 50 ng/well. The procedure:
as §2, §1

Test [14] has as its target T4, BSA. Put plainly: ELISA, BSA coated at 50 ng/well. On the procedure:
as §2, §1

The target of test [15] is T3, Proteinase 3. Put plainly: ELISA, PR3 coated at 50 ng/well, anti-FLAG-HRP detection. This is another data set of the same source.
Test [16] addresses T2, recombinant human myeloperoxidase …. Put plainly: ELISA, rhMPO coated at 50 ng/well, anti-FLAG-HRP detection. The source holds these as a separate data set.

T4 sequence (P02769 25-607 limits assumed): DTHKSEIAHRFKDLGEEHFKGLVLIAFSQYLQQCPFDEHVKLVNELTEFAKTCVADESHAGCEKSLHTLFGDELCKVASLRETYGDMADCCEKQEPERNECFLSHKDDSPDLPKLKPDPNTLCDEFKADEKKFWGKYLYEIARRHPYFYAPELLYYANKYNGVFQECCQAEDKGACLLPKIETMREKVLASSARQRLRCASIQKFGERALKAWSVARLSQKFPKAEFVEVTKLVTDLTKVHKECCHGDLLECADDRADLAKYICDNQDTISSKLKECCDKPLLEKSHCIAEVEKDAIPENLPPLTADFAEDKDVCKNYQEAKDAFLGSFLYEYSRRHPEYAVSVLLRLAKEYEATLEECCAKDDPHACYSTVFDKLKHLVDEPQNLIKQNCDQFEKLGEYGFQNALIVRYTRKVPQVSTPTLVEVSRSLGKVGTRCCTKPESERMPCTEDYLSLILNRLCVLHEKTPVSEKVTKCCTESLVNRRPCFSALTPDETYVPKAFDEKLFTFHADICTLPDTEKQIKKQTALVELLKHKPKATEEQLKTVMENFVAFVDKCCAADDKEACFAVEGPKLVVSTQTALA

B1: Fab 1C10 (Fab, V domains shown)
VH: QVQLVESGGGLVKPGGSLRLSCAASGFTFSDYYMSWIRQAPGKGLEWVSYISSSGSTIYYADSVKGRFTISRDNAKNSLYLQMNSLRAEDTAVYYCARVGGDFWSGFLMDVWGQGTTVTVSS
VL: DIQMTQSPSSLSASVGDRVTITCRASQSISSYLNWYQQKPGKAPKLLIYAASSLQSGVPSRFSGSGSGTDFTLTISSLQPEDVAVYYCMQALQTPLTFGQGTKLEIKR
notes: Human Fab from a phage library; also called Clone #1; #1 (Fab)
A word on the EC50: it is the midpoint of the concentration-response curve. A low value points to higher potency in that assay. What is called EC50 (read off the curve) is the concentration that produces a half-maximal response. By Kd is commonly meant a measure of binding affinity in units of concentration. The low end stands for tighter binding, the high end for weaker binding. B1: the midpoint of the response in test [1], the EC50, lay at 16.3 nM. For the same molecule, the “EC50 (read off the curve)” value in [2] was about 3 nM. The binding result in test [3] and in test [5] was “no binding (tested: about 7,000 nM)” in each case. The Kd in test [4] worked out at 8.5 nM. The “IC50 of inhibition of neutrophil elastase enzyme activity” value in [6] was about 5000 nM.

B2: IgG1 1C10 (antibody, V domains shown)
VH: QVQLVESGGGLVKPGGSLRLSCAASGFTFSDYYMSWIRQAPGKGLEWVSYISSSGSTIYYADSVKGRFTISRDNAKNSLYLQMNSLRAEDTAVYYCARVGGDFWSGFLMDVWGQGTTVTVSS
VL: DIQMTQSPSSLSASVGDRVTITCRASQSISSYLNWYQQKPGKAPKLLIYAASSLQSGVPSRFSGSGSGTDFTLTISSLQPEDVAVYYCMQALQTPLTFGQGTKLEIKR
notes: Fab 1C10 converted to a bivalent human IgG1 (heavy and light chains re-cloned into the pcDNA-IgG1 vector, expressed in Expi293 cells); also called IgG 1C10; 1C10 IgG1
Consider B2, for which the binding result in test [7], in test [8] and in [10] was “no binding (tested: about 200 nM)” in each case. The molecule also returned an EC50 in [9] of 0.4 nM. The Kd in test [4] stood at 0.14 nM. The “IC50 of inhibition of neutrophil elastase enzyme activity” value in test [6] is 1800 nM.

B3: VH-Fc 1D1.43 (Fc fusion)
chain: EVQLVESGGGVVQPGRSLRLSCAASGFTFSNYAMHWVRQAPGKGLEWVAVISYDGSNKYYADSVKGRFTISRDDSTNTLYLQMNNLRAEDTAVYYCAKDLPWEWELDYWGQGTLVTVSS
notes: VH 1D1.43 converted to a bivalent antibody by fusion to human IgG1 Fc; also called VH-Fc ID1.43; not shown: human IgG1 Fc
For B3, in [11], the concentration for a half-maximal effect (EC50 (read off the curve)) is about 0.7 nM. Moreover, the binding result in test [12], in [13] and in test [14] was “no binding (tested: about 1,000 nM)” in each case. The same molecule returned an EC50 in [9] of 0.66 nM. Also, the “IC50 of inhibition of neutrophil elastase enzyme activity; fold change against the VH form (VH 1D1.43)” value in test [6] stood at 10 fold.

B4: VH 1D1.43 (other)
VH: EVQLVESGGGVVQPGRSLRLSCAASGFTFSNYAMHWVRQAPGKGLEWVAVISYDGSNKYYADSVKGRFTISRDDSTNTLYLQMNNLRAEDTAVYYCAKDLPWEWELDYWGQGTLVTVSS
notes: Expressed in E. coli, purified on Ni-NTA and detected with anti-FLAG antibody; also called Clone #2; #2 (VH)
In [1], B4 returned a 50% effective concentration (EC50) of 4.3 nM. Moreover, the binding result in [15] and in test [16] was “no binding (tested: about 30,000 nM)” throughout. Moreover, the “EC50 (read off the curve)” value in test [2] was about 10 nM.
